Reference: patent publication US12679878B2, “CRF2 receptor agonists and their use in therapy” (SANOFI, priority 2020, dated 2026)
Starred links: 1 amine or outer side, 2 acyl side, 3 side chain; linkers in the order of their positions; H or OH if unused. Non-standard residues stand in square brackets, D forms with d. Groups on a side chain read outwards from the residue. No end group written: not given here. *: point of attachment. C18 diacid = O=C(O)CCCCCCCCCCCCCCCCC(=O)*; γGlu = O=C(O)[C@H](CCC(=O)[*:2])N[*:1]; AEEA = NCCOCCOCC(=O)O; Aib = CC(C)(N)C(=O)O

T1: CRF1R receptor (anti-target) (UniProt P34998 24-415, limits assumed)
T1 sequence (looked up): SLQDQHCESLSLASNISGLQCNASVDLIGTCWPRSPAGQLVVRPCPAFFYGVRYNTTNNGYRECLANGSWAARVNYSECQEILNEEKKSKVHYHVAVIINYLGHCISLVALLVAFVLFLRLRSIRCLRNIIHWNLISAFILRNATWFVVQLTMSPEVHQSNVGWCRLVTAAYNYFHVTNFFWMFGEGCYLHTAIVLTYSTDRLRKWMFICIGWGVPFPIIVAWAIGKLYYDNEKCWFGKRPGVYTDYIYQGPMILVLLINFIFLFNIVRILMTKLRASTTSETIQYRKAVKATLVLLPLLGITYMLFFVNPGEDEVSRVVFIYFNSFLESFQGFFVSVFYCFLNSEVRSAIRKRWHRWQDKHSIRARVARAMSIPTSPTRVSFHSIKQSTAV


Molecular target: T1, CRF1R receptor (anti-target)
Experiment: cell-based or functional assay

| EC50 [nM] 0% HSA (cAMP, HTRF) [nM] | Emax (%) (100% = Sauvagine at 100 nM) | Binder |
| --- | --- | --- |
| > 100 | 17.7 | IVLSLDVPIKLK([AEEA-AEEA-γGlu-C18 diacid])QILLEQARQK[Aib]QREQAEKNKRILERV-NH2 (N-terminus assumed; SMILES CC[C@H](C)[C@H](N)C(=O)N[C@H](C(=O)N[C@@H](CC(C)C)C(=O)N[C@@H](CO)C(=O)N[C@@H](CC(C)C)C(=O)N[C@@H](CC(=O)O)C(=O)N[C@H](C(=O)N1CCC[C@H]1C(=O)N[C@H](C(=O)N[C@@H](CCCCN)C(=O)N[C@@H](CC(C)C)C(=O)N[C@@H](CCCCNC(=O)COCCOCCNC(=O)COCCOCCNC(=O)CC[C@H](NC(=O)CCCCCCCCCCCCCCCCC(=O)O)C(=O)O)C(=O)N[C@@H](CCC(N)=O)C(=O)N[C@H](C(=O)N[C@@H](CC(C)C)C(=O)N[C@@H](CC(C)C)C(=O)N[C@@H](CCC(=O)O)C(=O)N[C@@H](CCC(N)=O)C(=O)N[C@@H](C)C(=O)N[C@@H](CCCNC(=N)N)C(=O)N[C@@H](CCC(N)=O)C(=O)N[C@@H](CCCCN)C(=O)NC(C)(C)C(=O)N[C@@H](CCC(N)=O)C(=O)N[C@@H](CCCNC(=N)N)C(=O)N[C@@H](CCC(=O)O)C(=O)N[C@@H](CCC(N)=O)C(=O)N[C@@H](C)C(=O)N[C@@H](CCC(=O)O)C(=O)N[C@@H](CCCCN)C(=O)N[C@@H](CC(N)=O)C(=O)N[C@@H](CCCCN)C(=O)N[C@@H](CCCNC(=N)N)C(=O)N[C@H](C(=O)N[C@@H](CC(C)C)C(=O)N[C@@H](CCC(=O)O)C(=O)N[C@@H](CCCNC(=N)N)C(=O)N[C@H](C(N)=O)C(C)C)[C@@H](C)CC)[C@@H](C)CC)[C@@H](C)CC)C(C)C)C(C)C) [peptide of SEQ ID NO: 125] |
| > 100 | 36.5 | IVLSLD[dV]PIKLK([AEEA-AEEA-γGlu-C18 diacid])QILLEQAKQK[Aib]QRAQAEKNKRILERV-NH2 (N-terminus assumed; SMILES CC[C@H](C)[C@H](N)C(=O)N[C@H](C(=O)N[C@@H](CC(C)C)C(=O)N[C@@H](CO)C(=O)N[C@@H](CC(C)C)C(=O)N[C@@H](CC(=O)O)C(=O)N[C@@H](C(=O)N1CCC[C@H]1C(=O)N[C@H](C(=O)N[C@@H](CCCCN)C(=O)N[C@@H](CC(C)C)C(=O)N[C@@H](CCCCNC(=O)COCCOCCNC(=O)COCCOCCNC(=O)CC[C@H](NC(=O)CCCCCCCCCCCCCCCCC(=O)O)C(=O)O)C(=O)N[C@@H](CCC(N)=O)C(=O)N[C@H](C(=O)N[C@@H](CC(C)C)C(=O)N[C@@H](CC(C)C)C(=O)N[C@@H](CCC(=O)O)C(=O)N[C@@H](CCC(N)=O)C(=O)N[C@@H](C)C(=O)N[C@@H](CCCCN)C(=O)N[C@@H](CCC(N)=O)C(=O)N[C@@H](CCCCN)C(=O)NC(C)(C)C(=O)N[C@@H](CCC(N)=O)C(=O)N[C@@H](CCCNC(=N)N)C(=O)N[C@@H](C)C(=O)N[C@@H](CCC(N)=O)C(=O)N[C@@H](C)C(=O)N[C@@H](CCC(=O)O)C(=O)N[C@@H](CCCCN)C(=O)N[C@@H](CC(N)=O)C(=O)N[C@@H](CCCCN)C(=O)N[C@@H](CCCNC(=N)N)C(=O)N[C@H](C(=O)N[C@@H](CC(C)C)C(=O)N[C@@H](CCC(=O)O)C(=O)N[C@@H](CCCNC(=N)N)C(=O)N[C@H](C(N)=O)C(C)C)[C@@H](C)CC)[C@@H](C)CC)[C@@H](C)CC)C(C)C)C(C)C) [peptide of SEQ ID NO: 126] |
